# Test results: the nanobody polyreactivity screen of Harvey et al. (2022)
# Experiment: yeast display, Sf9 membrane polyspecificity reagent, FACS + sequencing; frameworks hold sequencing errors
# How it was run: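 Nanobodies from a synthetic yeast display library (Saccharomyces cerevisiae BJ5465), induced 36–48 hours with galactose, were stained 1 hour at 4 °C with 10% biotinylated, detergent-solubilized Sf9 membrane reagent, enriched on streptavidin microbeads, then FACS-sorted. Anti-HA (expression) and streptavidin (reagent binding) fluorescence set low and high (top ~1%) gates. Polyreactivity labels come from the gate of origin. Genes were colony-PCR amplified, MiSeq 2 × 250 sequenced and filtered by CDR length.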
row,Sequence,polyreactivity (PSR sort gate)
1,QVQLVESGGGLVQAGGSLRLSCAASGSTFSSNAMGWYRQAPGKEREFVAGISRSGGSTYYADSVKGRFTISRDNAKNTVYLQMNSLKPEDTAVYYCAARGGPGFKFGYWGQGTQVTVSS,high polyreactivity
2,QVQLVESGGGLVQAGGSLRLSCAASGSTFSSNAMGWYRQAPGKERELVAAINRTGNTYYADSVKGRFTISRDNAKNTVYLQMNSLKPEDTAVYYCNTDLNLYRGGGYWGQGTQVTVSS,low polyreactivity
3,QVQLVESGGGLVQAGGSLRLSCAASGSTFSSYAMGWYRQAPGKEREFVAAISRSGVRTYYADSVKGRFTISRDNAKNSVYLQMNSLNPEDTVVYYCAAVSSLSYSFPYDYWGQGTQVTVSS,high polyreactivity
4,QVQLVESGGGLVQAGGSLRLSCAASGSTFSSYAMGWYRQAPGKERELVAAITSSGGSTYYADSVKGRFTISRDNAKNTVYLQMNSLKPEDTAVYYCAAADVIFWLYYYWGQGTQVTVSS,low polyreactivity
5,QVQLVESGGGLVQAGGSLRLSCAASGSTFSSYAMGWYRQAPGKERELVARITSGGSTYYADSVKGRFTISRDNAKNTVYSQMNSLKPEDTAVYYCAARGYYYRSRVSQFKYDYWGQGTQVTVSS,high polyreactivity
6,QVQLVESGGGLVQAGGSLRLSCAASGSTFSTNAMGWYRQAPGKERDLVAAISRSGGSTYYADTVKRRFTISRDIAKITVYLQMNSLKPEVSAVYYCARYSYRGTNVSYDYWGQGTQVTVSS,high polyreactivity
7,QVQLVESGGGLVQAGGSLRLSCAASGSTFSTNAMGWYRQAPGKERELVAAISYSGGSTYYADSVKGRFTISRDNAKNTVYLQMISLKPEDTAVYYCAADGYYYNSGGRYYEFYYWGQGTQVTVSS,low polyreactivity
8,QVQLVESGGGLVQAGGSLRLSCAASGSTFSTYAMGSYRQAPGKERELVATISKRGGSTYYADSVKGRFTISRDNAKNTVYLQMNSLKPEDTAVYYCATPRYRYYTIYDYGYWGQGTQVTVSS,high polyreactivity
9,QVQLVESGGGLVQAGGSLRLSCAASGSTFSTYAMGWYRQAPGKERELVAAIRSGGSTYYADSVKGRFTISRDNAKNTVYLQMNSLKPEDTAVYYCAAKPRNYSYRYYYWGQGTQVTVSS,high polyreactivity
10,QVQLVESGGGLVQAGGSLRLSCAASGSTFSVNAMGWYRQAPGKEREMVAAISSTGSTKYADSVKGRFTISRDNAKNTVYLQMNSLKPEDTAVYCAASNADYEYDPFSVWYFSPYDYWGQGTQVTVSS,low polyreactivity
11,QVQLVESGGGLVQAGGSLRLSCAASGSTFSVYAMGWYRQAPGKEMELVATITWNGGRTYYADSVKGRFTISRDNAKNTVYLQMNSLKPEDTAVYYCASPWLKPGNGIYGGYGYWGQGTQVTVSS,high polyreactivity
12,QVQLVESGGGLVQAGGSLRLSCAASGSTFSVYAMGWYRQAPGKERELVADITRGGSTYADSVKGRFTISRDNAKNTVYLQMNSLKPEDTAVYYCAREEVTPYPLYWSTREYDYWGQGTQVTVSS,low polyreactivity
13,QVQLVESGGGLVQAGGSLRLSCAASGSTFSVYAMGWYRQAPGKERELVATIRGRGGSTSYADSVKGRFTISRDNAKNTVYLQMNSLKPEDTAVYYCAARVVRDWASKRIILALSNYDYWGQGTQVTVSS,high polyreactivity
14,QVQLVESGGGLVQAGGSLRLSCAASGSTFSWYAMGWYRQAPGKERELVAAISSGGSTNYADSVKGRFTISRDNAKNTVYLQMNSMKPEDTAVYYCAAVWSRFLISYSTGWWFEYWGQGTKVTVSS,low polyreactivity
15,QVQLVESGGGLVQAGGSLRLSCAASGSTFSWYAMGWYRQAPGKERELVAAITRSGGRTYYADSVKGRFTISRDNAKNTVYLQMNSLKPEDTAVYYCAAVQYKSPHNYWGQGTQVTVSS,high polyreactivity
16,QVQLVESGGGLVQAGGSLRLSCAASGSTFSYNAMGWYRQAPGKERELVAAISGSGGTTYYADSVKGRFTISRDNAKNTVYLQMNSLKPEDTAVYYCAARPFRSWRYDYWGQGTQVTVSS,low polyreactivity
17,QVQLVESGGGLVQAGGSLRLSCAASGSTFSYNAMGWYRQAPGKERELVAAISRGDVSTYYADSVKGRFTISRDNAKNTVYLQMNSLKPEDSAVYYWAAYWYGSQYKWRYDYWGQGTQGTVSS,low polyreactivity
18,QVQLVESGGGLVQAGGSLRLSCAASGSTFSYNAMGWYRQAPGKERELVAAISWSGGSTYYADSVKGRFTISRDNAKNTVYLQMNSLKPEDTAVYYCASDSPYGYYEGDYWGQGTQVTVSS,low polyreactivity
19,QVQLVESGGGLVQAGGSLRLSCAASGSTFSYNAMGWYRQAPGKERELVAAITSRGGSTRYADSVKGRFTISRDNAKNTVYLQMNSLKPEDTAVYYCARPYSYYPYSTVNYWGQGTQVTVSS,high polyreactivity
20,QVQLVESGGGLVQAGGSLRLSCAASGSTFSYNAMGWYRQAPGKERELVAGITGRGGSTYYADSEKGRFTISRDNAKNTVYLQMYSLKPEDTAVYYCAADARSYGYPDDFWGQGTQVTVSS,high polyreactivity
21,QVQLVESGGGLVQAGGSLRLSCAASGSTFSYNAMGWYRQAPGKERELVATISNTDSTNYADSVKGRFTISRDNAKNTVYLQMNSLKPEVTAVYYCAVVSARIDYEYWGQGTQVTVSS,low polyreactivity
22,QVQLVESGGGLVQAGGSLRLSCAASGSTFSYNAMVWYRQAPRKERELVAAISRRGDNTYYADSVKGRFTISRDNAKNTVYLQMYSLKPEDTAVYYCAAVGYFVKQYAPRYGYWGHGTQVTVSS,low polyreactivity

row,Sequence,polyreactivity (PSR sort gate)
1,QVQLVESGGGLVQAGGSLRLSCAASGSTFSYNDMGWYRQAPGKERELVAAISSGGSTKYADSVKGRFTISRDNAKNTVYLQMNSLKPEDTAVYYCNVDVKGRPTFWSPFGRFDYWGQGTQVTVSS,high polyreactivity
2,QVQLVESGGGLVQAGGSLRLSCAASGSTFSYNTMGWYRQAPGKERELVATISSSSGSTTYADSVKGRFTISRDIAKNTVYLQINSLKPEDTAVYYCNVDDPFYSGVVEFDYWGQGTQVTVSS,low polyreactivity
3,QVQLVESGGGLVQAGGSLRLSCAASGSTFSYYAIGWYRQAPGKERELVAAISRRGGSTYYADSVKGRFTISRDNAKNTVYLQMNRLKPEDTAVYYCAADYYFSSRIEYYYWGQGTQVTVSS,high polyreactivity
4,QVQLVESGGGLVQAGGSLRLSCAASGSTFSYYAMGWYRKAPGKERELVAAITIGGRTNYADSVKGRFTISRDNAKNTVYFQMNSLKPEDTAVYYCAASRVRSLRSYVWDLLLMDSWGQGTQVTVSS,high polyreactivity
5,QVQLVESGGGLVQAGGSLRLSCAASGSTFSYYAMGWYRQAPGKERELVAAITRGGSTYYADSVKGRFTISRDNAKNTVYLQMNSLKPEDTAVYYWAGQLLRYRYYYWGQGTQVNVSS,high polyreactivity
6,QVQLVESGGGLVQAGGSLRLSCAASGSTFSYYTMGWYRQSPGKERELVAVISTSGGNTYYADSVKGRFTISRDNAKNTVYLQMNSLKPEDTAVYYCAAAYPRVTYKNGYYWGQGTQVTVSS,high polyreactivity
7,QVQLVESGGGLVQAGGSLRLSCAASGSTFTANAMGWYRQAPGKERELVAAITNSDGSTYYADSVKGRFTISRDNAKNTVYLQMNSLKPEDTAVYYCAAPADSGITQVWQALSDYWGQGTQVTVSS,low polyreactivity
8,QVQLVESGGGLVQAGGSLRLSCAASGSTFTANAMGWYRQAPWKERELVAAITNSDGSTYYADSVKGRFTISRDNAKNTVYLQMNSLKPEDTAVYYCAKDYYACYWEMDYWGQGTQVTVSS,low polyreactivity
9,QVQLVESGGGLVQAGGSLRLSCAASGSTFTAYAMGWYRQAPGKERELVADISDSGGSTYYADSVKGRFTISRDNAKNTVYLQMNSLKPEDTAVYYCAVDVRAYVVSKFDSWGQGTQVTVSS,low polyreactivity
10,QVQLVESGGGLVQAGGSLRLSCAASGSTFTAYAMGWYRQAPGKERELVADISKRSGGTYYADSVKGRFTISRDNAKNTVYLQMNSLKPEDTAVYYCGQGTQVTVSS,low polyreactivity
11,QVQLVESGGGLVQAGGSLRLSCAASGSTFTAYAMGWYRQAPGKERQLVAAISKRSGVTYYADSVKGRFTISRDNAKNTVYLQINSLKPEDTAVYYCGQGTQVTVSS,low polyreactivity
12,QVQLVESGGGLVQAGGSLRLSCAASGSTFTDNGMVWYRQAPGKARELVAGISYSGGSTYYADSVKGRFRISRDNAKNTVYLQMNSLKPEDTAVYYCAADRGGYYLSEYDYWGQVTQVTVSS,low polyreactivity
13,QVQLVESGGGLVQAGGSLRLSCAASGSTFTENTMGWYRQAPGKERELVAAITDSGGSTYYADSVKGRFTISRDNAKNTVYLQMNSLKPEDTAVYYCAADVQPDTRSTPEMDYWGQGTQVTVSS,low polyreactivity
14,QVQLVESGGGLVQAGGSLRLSCAASGSTFTFNAMAWYRQAPGKEREFVAAITASGGRTYYADSVKGRFTISRDNAKNTVYLQMNSLKPEDTAVYYCNASQWPSRFDYWGQGTQVTVSS,low polyreactivity
15,QVQLVESGGGLVQAGGSLRLSCAASGSTFTFNAMGWYRKAPGKERELVAAISGSDVTTYYADSVKGRFTISRDNAKNSVYLQMNSLKPEDTAVYYCAAESYVTTVTGPHTGDYWGQGTQVTVSS,low polyreactivity
16,QVQLVESGGGLVQAGGSLRLSCAASGSTFTFNAMGWYRQAPGKERELVAAIRWSTGGTYYADSVKGRFTISRDNAKNTVYLQMNSLKPEDTAVYYCAAQFVPYFYFSKYDYWGQGTQVTVSS,low polyreactivity
17,QVQLVESGGGLVQAGGSLRLSCAASGSTFTFYAMGWYRQAPGKERELVAAISGRGGSTYYADSVKGRFTISRDNAMNTVYLQMNSLKPEDTAVYYCAAGWSRVWRRDFGYWGQGTQVTVSS,low polyreactivity
18,QVQLVESGGGLVQAGGSLRLSCAASGSTFTFYAMGWYRQAPGKERELVASITQSTGSTHYADSVKGRFTISRDNAKNTVYLQMNSLKPEDTSVYYCNAQKIVYYWVTLFPYYYWGQGTQVTVSS,low polyreactivity
19,QVQLVESGGGLVQAGGSLRLSCAASGSTFTGNAMGWYSQAPGKERELVAAISRSGGRTYYADSVKGRFTISRDNAKNTVYLQMNSLKPEDTAVYYCNAVRNRGQRTAFDYWGQGTQVTVSS,high polyreactivity
20,QVQLVESGGGLVQAGGSLRLSCAASGSTFTGNSMGWYRQAPGKERELVAAISSSGASTYYADSVKGPFTISRDNAKNTVYLQMNSLKPEDTAVYYCAAELFYYPTPFREYDYWGQGTQVTVSS,low polyreactivity
21,QVQLVESGGGLVQAGGSLRLSCAASGSTFTGYAMGWYRPAPGKERELVAGITGSGGSTYYADSVKGRFTISRDNAKNTVYLQMNSLKPEDTAVYYCAAELYDYGDLYYSEYDYWGQGTQVTVSS,low polyreactivity
